Square brackets hold non-standard residues; d marks the D form. Ends that are not written are not given here. * marks the point of attachment. Myristoyl = CCCCCCCCCCCCCC(=O)*; pS = N[C@@H](COP(=O)(O)O)C(=O)O
Target: Bacterially expressed Purified GSK-3β Wild-Type (WT) (human, UniProt P49841 1-420)
Assay: cell-based or functional assay

Chain of Bacterially expressed Purified GSK-3β Wild-Type (WT) (P49841 other isoform, or with tags, fused parts or gaps limits assumed): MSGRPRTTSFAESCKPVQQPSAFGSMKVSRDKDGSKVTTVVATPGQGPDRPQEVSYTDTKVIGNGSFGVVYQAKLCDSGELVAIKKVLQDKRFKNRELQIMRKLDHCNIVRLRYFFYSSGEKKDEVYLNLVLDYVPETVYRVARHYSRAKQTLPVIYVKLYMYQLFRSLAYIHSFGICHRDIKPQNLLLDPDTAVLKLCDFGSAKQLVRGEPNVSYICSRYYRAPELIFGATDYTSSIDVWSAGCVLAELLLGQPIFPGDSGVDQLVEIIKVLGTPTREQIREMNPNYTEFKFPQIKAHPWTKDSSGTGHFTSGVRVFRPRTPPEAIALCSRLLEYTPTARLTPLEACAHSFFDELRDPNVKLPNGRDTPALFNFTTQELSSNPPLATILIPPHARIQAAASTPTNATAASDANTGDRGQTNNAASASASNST

Binder: Myristoyl-GKEAPPAPPQ[pS]P [L803-mts]
- IC50, inhibition of GSK-3β phosphorylation of pIRS-1 (in vitro kinase assay): 40 µM

Binder: KEAPPSPPQ[pS]P [L807]
- IC50, inhibition of GSK-3β phosphorylation of pIRS-1 (in vitro kinase assay): 16 µM

Binder: KEAPPAPPQ[pS]P [L803]
- IC50, inhibition of GSK-3β phosphorylation of pIRS-1 (in vitro kinase assay): 200 µM

Reference: patent US20160200763A1 (RAMOT AT TEL AVIV UNIVERSITY, published 2016)
